# From US20230302148A1, “PHARMACEUTICAL COMPOSITION COMPRISING LONG-ACTING CONJUGATE OF TRIPLE GLUCAGON/GLP-1/GIP RECEPTOR AGONIST” (HANMI PHARM. CO., LTD., priority 2020, published 2023)
# Bridges are numbered along the chain shown (N, C = ends). Where no end group is shown, it is not given here. [ ]: non-standard residue; d: D form. The star is where a group is joined. Acetyl(2-(4-imidazolyl)) = O=C(Cc1c[nH]cn1)*; Aib = CC(C)(N)C(=O)O
# B1: triple agonist of SEQ ID NO: 20 (peptide)
# peptide: [Acetyl(2-(4-imidazolyl))]GQGTFTSDLSIQYEEEAQQDFVEWLKDTGPSSGAPPPSHG
# B2: triple agonist of SEQ ID NO: 11 (peptide)
# peptide: [Acetyl(2-(4-imidazolyl))]GEGTFTSDLSKYLDSRRQQLFVQWLKAGGPSSGAPPPSHG
# B3: triple agonist of SEQ ID NO: 96 (peptide)
# peptide: Y[Aib]QGTFTSDYSKYLDEKRAKEFVQWLLDHCPSSGQPPPS
# modifications: bridge 16-20
# B4: triple agonist of SEQ ID NO: 94 (peptide)
# peptide: {Acetyl(2-(4-imidazolyl))}-[Aib]QGTFTSDYSIAMDEIHQKDFVNWLLNTKC
# modifications: bridge 15-19
# B5: triple agonist of SEQ ID NO: 28 (peptide)
# peptide: H[Aib]QGTFTSDYSKYLDEKRAQEFVCWLLAQKGKKNDWKHNIT
# B6: triple agonist of SEQ ID NO: 26 (peptide)
# peptide: H[Aib]QGTFTSDCSKYLDSRAAQDFVQWLLDGGPSSGAPPPS
# B7: triple agonist of SEQ ID NO: 27 (peptide)
# peptide: H[Aib]QGTFTSDYSKYLDERACQDFVQWLLDQGGPSSGAPPPS
# B8: triple agonist of SEQ ID NO: 98 (peptide)
# peptide: Y[Aib]QGTFTSDYSKALDEKAAKEFVNWLLDHHPSSGQPPPSC
# modifications: bridge 16-20
# B9: triple agonist of SEQ ID NO: 12 (peptide)
# peptide: [Acetyl(2-(4-imidazolyl))]GEGTFISDLSKYMDEQAVQLFVEWLMAGGPSSGAPPPSHG
# B10: triple agonist of SEQ ID NO: 21 (peptide)
# peptide: Y[Aib]QGTFTSDYSKYLDECRAKEFVQWLLDHHPSSGQPPPS
# modifications: bridge 16-20
# B11: triple agonist of SEQ ID NO: 3 (peptide)
# peptide: H[Aib]QGTFTSDVSSYLLGQAAKQFIAWLVKGGGPSSGAPPPSC
# B12: triple agonist of SEQ ID NO: 99 (peptide)
# peptide: Y[Aib]QGTFTSDYSKALDEKAAKDFVNWLLDHHPSSGQPPPSC
# modifications: lactam 16-20
# B13: triple agonist of SEQ ID NO: 95 (peptide)
# peptide: Y[Aib]QGTFTSDYSKYLDEKRAKEFVQWLLCHHPSSGQPPPS
# modifications: bridge 16-20
# B14: triple agonist of SEQ ID NO: 19 (peptide)
# peptide: [Acetyl(2-(4-imidazolyl))]GQGTFTSDLSIQYDSEHQRDFIEWLKDTGPSSGAPPPSHG
# Target: human GLP-1 receptor (human, UniProt P43220 24-463)
# Experiment: cell-based or functional assay
row,Binder,In vitro activity relative to native peptide (%) vs. GLP-1 [%]
1,B1,< 0.1
2,B2,1.4
3,B3,34.4
4,B4,0.5
5,B5,17.2
6,B6,64.5
7,B7,83.1
8,B8,28.1
9,B9,0.4
10,B10,17.8
11,B11,1.8
12,B12,20.9
13,B13,2.1
14,B14,< 0.1

# Target: T1, human GIP receptor (human, UniProt P48546 22-466)
# T1 sequence (looked up): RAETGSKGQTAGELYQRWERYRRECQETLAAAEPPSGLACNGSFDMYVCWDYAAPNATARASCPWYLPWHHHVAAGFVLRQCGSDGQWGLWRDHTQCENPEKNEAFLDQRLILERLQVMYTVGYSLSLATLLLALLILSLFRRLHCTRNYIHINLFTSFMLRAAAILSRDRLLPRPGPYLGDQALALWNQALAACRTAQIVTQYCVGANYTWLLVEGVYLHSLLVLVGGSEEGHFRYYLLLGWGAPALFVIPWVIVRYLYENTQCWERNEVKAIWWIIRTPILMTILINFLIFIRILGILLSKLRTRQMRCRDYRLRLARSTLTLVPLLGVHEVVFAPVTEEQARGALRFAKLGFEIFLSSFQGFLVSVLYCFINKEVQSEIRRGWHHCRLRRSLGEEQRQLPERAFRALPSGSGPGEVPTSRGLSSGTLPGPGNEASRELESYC
# Experiment: cell-based or functional assay
row,Binder,In vitro activity relative to native peptide (%) vs. GIP [%]
1,B1,< 0.1
2,B2,< 0.1
3,B3,5.2
4,B4,< 0.1
5,B5,< 0.1
6,B6,< 0.1
7,B7,0.9
8,B8,47.1
9,B9,< 0.1
10,B10,22.7
11,B11,< 0.1
12,B12,57.7
13,B13,< 0.1
14,B14,< 0.1

# Target: human GCG receptor (human, UniProt P47871 26-477)
# Sequence (P47871 26-477): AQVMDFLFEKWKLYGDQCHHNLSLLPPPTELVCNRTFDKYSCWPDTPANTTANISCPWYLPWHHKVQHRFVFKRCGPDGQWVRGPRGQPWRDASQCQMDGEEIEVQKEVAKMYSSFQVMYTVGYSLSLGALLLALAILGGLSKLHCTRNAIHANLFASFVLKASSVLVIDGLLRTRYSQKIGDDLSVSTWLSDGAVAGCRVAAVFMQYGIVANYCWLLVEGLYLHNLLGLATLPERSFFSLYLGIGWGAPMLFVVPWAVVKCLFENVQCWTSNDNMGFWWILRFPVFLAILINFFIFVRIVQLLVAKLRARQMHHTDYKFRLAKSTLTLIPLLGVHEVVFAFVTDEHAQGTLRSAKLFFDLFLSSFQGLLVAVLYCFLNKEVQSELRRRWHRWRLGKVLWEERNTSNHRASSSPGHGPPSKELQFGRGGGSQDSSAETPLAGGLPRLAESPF
# Experiment: cell-based or functional assay
row,Binder,In vitro activity relative to native peptide (%) vs. Glucagon [%]
1,B1,< 0.1
2,B2,< 0.1
3,B3,195
4,B4,< 0.1
5,B5,1.6
6,B6,0.2
7,B7,0.8
8,B8,8.2
9,B9,< 0.1
10,B10,267
11,B11,< 0.1
12,B12,14.9
13,B13,0.4
14,B14,< 0.1
